Test results published in PMC5062977 (Nucleic Acids Research, 2016).

T1: GST-RecA (E. coli, UniProt P0A7G6 2-353)
T1 sequence: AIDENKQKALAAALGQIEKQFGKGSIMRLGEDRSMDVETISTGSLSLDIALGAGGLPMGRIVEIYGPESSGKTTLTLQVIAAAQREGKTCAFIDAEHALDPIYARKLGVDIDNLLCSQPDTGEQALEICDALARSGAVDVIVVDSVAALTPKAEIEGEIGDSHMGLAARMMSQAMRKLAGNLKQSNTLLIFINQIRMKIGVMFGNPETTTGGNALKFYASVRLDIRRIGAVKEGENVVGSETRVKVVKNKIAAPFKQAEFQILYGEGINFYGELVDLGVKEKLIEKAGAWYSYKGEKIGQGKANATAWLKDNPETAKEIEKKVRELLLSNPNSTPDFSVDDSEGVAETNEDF

B1: His-tag AlkB (Escherichia coli alkylation repair protein-B) (enzyme, E. coli)
chain: MLDLFADAEPWQEPLAAGAVILRRFAFNAAEQLIRDINDVASQSPFRQMVTPGGYTMSVAMTNCGHLGWTTHRQGYLYSPIDPQTNKPWPAMPQSFHNLCQRAATAAGYPDFQPDACLINRYAPGAKLSLHQDKDEPDLRAPIVSVSLGLPAIFQFGGLKRNDPLKRLLLEHGDVVVWGGESRLFYHGIQPLKAGFHPLTIDCRYNLTFRQAGKKE
B2: His-tag RecA (natural protein, E. coli)
chain: T1 sequence

Legend:
[1] = target: B2; test: SEC
[2] = target: T1, GST-RecA; test: pull-down
[3] = target: the molecule itself; test: SEC

Binder	binding result [1]	binding result [2]	binding result [3]
B1	binds	binds	–
B2	–	–	binds
